The data set concerns the molecule itself. The data set is described as follows: SEC.

This note sets out measurements from publication PMC12675262 (Journal of Experimental Botany, 2025).

B1: Synechocystis sp. PCC 6803 fructose-1,6-bisphosphatase (FBPase; slr0952) (enzyme, UniProt P74324 1-347, looked up)
chain: MTVSEIHIPNSLLDRDCTTLSRHVLQQLNSFGADAQDLSAIMNRIALAGKLIARRLSRAGLMADVLGFTGETNVQGESVKKMDVFANDVFISVFKQSGLVCRLASEEMEKPYYIPENCPIGRYTLLYDPIDGSSNVDINLNVGSIFAIRQQEGDDLDGSASDLLANGDKQIAAGYILYGPSTILVYSLGSGVHSFILDPSLGEFILAQENIRIPNHGPIYSTNEGNFWQWDEALRDYTRYVHRHEGYTARYSGALVGDIHRILMQGGVFLYPGTEKNPDGKLRLLYETAPLAFLVEQAGGRASDGQKRLLDLIPSKLHQRTPAIIGSAEDVKLVESFISDHKQRQGN
On to B1, for which the “stoichiometry N” value came out at 4.
